Test results as given in patent publication US20120258482.

Molecular target: purified recombinant 6x His-PCNA
Sequence (chain, as listed by the source): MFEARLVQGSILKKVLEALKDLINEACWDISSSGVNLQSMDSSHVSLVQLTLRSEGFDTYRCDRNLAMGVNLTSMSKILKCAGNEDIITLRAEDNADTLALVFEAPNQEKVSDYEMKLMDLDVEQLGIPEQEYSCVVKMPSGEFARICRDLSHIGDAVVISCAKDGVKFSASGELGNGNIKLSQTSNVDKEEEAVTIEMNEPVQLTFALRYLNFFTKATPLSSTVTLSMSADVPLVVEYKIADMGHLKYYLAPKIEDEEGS

B1: Flag-tagged C6orf211 protein fusion (Flag-Arm1) (protein)
chain: MAVVPASLSGQDVGSFAYLTIKDRIPQILTKVIDTLHRHKSEFFEKHGEEGVEAEKKAISLLSKLRNELQTDKPFIPLVEKFVDTDIWNQYLEYQQSLLNESDGKSRWFYSPWLLVECYMYRRIHEAIIQSPPIDYFDVFKESKEQNFYGSQESIIALCTHLQQLIRTIEDLDENQLKDEFFKLLQISLWGNKCDLSLSGGESSSQNTNVLNSLEDLKPFILLNDMEHLWSLLSNCKKTREKASATRVYIVLDNSGFELVTDLILADFLLSSELATEVHFYGKTIPWFVSDTTIHDFNWLIEQVKHSNHKWMSKCGADWEEYIKMGKWVYHNHIFWTLPHEYCAMPQVAPDLYAELQKAHLILFKGDLNYRKLTGDRKWEFSVPFHQALNGFHPAPLCTIRTLKAEIQVGLQPGQGEQLLASEPSWWTTGKYGIFQYDGPL
With B1 the “PCNA-dependent carboxyl methyltransferase activity (vapor diffusion assay)” value was “Significant levels of PCNA-dependent carboxyl methyltransferase activity was detected in the anti-Flag Flag-Arm1 expressing extracts, and this activity was not present in the immunoprecipitates from control extracts”.
